The record followed here is patent US20220268788A1.

Holding throughout (experiment): immunoprecipitation with HCDR3 construct, number of peptides identified by mass spectrometry
Assay [1] deals with 78 kDa glucose-regulated protein (mouse) (UniProt P20029).
Assay [2] concerns the target Heat shock cognate 71 kDa protein (mouse) (UniProt P63017).
The target in assay [3] is T1, citrate synthase, mitochondrial (mouse) (UniProt Q9CZU6).
T1 sequence (looked up): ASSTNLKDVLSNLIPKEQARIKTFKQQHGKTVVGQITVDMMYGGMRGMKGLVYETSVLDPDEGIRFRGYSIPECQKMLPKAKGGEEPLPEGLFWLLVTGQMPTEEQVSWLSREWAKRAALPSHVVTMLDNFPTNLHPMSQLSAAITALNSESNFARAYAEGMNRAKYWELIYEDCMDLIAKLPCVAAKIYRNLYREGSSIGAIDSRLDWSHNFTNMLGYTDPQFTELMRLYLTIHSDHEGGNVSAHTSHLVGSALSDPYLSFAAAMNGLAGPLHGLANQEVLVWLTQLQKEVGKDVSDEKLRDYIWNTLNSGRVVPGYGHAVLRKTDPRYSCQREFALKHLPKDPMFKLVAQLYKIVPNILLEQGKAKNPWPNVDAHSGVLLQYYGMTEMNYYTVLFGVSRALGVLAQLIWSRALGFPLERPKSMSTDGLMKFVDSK

The target in assay [4] is T2, Succinate--CoA ligase [ADP-forming] subunit beta, mitochondrial (mouse) (UniProt Q9Z2I9).
T2 sequence (looked up): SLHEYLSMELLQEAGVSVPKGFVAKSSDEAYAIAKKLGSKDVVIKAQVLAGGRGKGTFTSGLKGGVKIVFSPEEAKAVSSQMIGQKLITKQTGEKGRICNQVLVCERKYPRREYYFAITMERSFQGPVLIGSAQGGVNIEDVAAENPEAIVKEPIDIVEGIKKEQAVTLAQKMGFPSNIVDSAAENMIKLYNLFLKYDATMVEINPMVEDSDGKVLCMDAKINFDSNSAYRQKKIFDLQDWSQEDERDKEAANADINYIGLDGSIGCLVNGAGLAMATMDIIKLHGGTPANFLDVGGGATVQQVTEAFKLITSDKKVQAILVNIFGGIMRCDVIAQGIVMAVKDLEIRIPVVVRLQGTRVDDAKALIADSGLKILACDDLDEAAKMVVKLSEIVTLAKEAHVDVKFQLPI

bromoacetamide scaffold with biotin = not defined here

Chain of 78 kDa glucose-regulated protein (mouse) (P20029 20-655 limits assumed): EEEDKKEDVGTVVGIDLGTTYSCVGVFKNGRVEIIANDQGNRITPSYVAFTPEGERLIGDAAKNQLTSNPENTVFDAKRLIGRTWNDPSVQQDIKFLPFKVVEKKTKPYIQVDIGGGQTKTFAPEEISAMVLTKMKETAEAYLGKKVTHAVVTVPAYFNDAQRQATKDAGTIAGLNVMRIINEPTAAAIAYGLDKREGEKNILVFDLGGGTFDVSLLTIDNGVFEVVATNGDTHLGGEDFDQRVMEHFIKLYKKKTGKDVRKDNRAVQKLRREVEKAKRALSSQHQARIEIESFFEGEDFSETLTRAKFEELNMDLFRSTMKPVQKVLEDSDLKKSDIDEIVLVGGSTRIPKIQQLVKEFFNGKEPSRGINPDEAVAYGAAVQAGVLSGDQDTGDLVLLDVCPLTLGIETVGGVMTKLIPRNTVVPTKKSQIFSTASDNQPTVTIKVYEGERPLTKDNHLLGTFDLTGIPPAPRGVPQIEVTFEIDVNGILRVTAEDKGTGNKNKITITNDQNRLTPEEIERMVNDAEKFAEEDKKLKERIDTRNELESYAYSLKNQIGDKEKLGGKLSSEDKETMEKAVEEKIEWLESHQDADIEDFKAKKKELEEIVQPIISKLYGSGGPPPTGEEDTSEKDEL
Chain of Heat shock cognate 71 kDa protein (mouse) (P63017 2-646 limits assumed): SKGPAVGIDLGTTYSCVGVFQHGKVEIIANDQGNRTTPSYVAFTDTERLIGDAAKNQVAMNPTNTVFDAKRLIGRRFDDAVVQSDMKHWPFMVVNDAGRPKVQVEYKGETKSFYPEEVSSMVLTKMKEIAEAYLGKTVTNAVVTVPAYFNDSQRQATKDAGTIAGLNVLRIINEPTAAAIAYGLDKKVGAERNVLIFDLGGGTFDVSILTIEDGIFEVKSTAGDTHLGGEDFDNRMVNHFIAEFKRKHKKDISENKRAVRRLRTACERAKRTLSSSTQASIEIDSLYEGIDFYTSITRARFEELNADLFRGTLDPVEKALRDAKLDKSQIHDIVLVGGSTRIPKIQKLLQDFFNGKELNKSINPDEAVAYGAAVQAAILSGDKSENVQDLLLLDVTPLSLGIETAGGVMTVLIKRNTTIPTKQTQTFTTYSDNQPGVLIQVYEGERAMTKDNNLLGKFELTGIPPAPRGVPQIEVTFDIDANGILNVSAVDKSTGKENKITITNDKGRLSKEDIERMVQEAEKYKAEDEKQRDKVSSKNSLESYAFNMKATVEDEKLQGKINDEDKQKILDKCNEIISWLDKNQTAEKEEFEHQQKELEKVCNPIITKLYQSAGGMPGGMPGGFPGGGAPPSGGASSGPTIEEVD

B1: subacute-1 construct (SA1), biotinylated cyclic HCDR3 construct (peptide, part only; not given: biotin scaffold, part only)
peptide: Ac-TDLAVAHPVRY-NH2
modifications: linker (positions not given here) via bromoacetamide scaffold with biotin; reading uncertain; also: biotinylated bromoacetamide scaffold cyclization, attachment sites not given here
In the case of B1, the # Peptides in assay [1] and in assay [2] was 6 peptides throughout.

B2: Acute-2 construct (A2), biotinylated cyclic HCDR3 construct (peptide, part only; not given: biotin scaffold, part only)
peptide: Ac-SLYGSSRHTAPISF-NH2
modifications: linker (positions not given here) via bromoacetamide scaffold with biotin; reading uncertain; also: biotinylated bromoacetamide scaffold cyclization, attachment sites not given here
For the molecule B2, the # Peptides in assay [3] came to 3 peptides; in assay [4], 4 peptides.
